# Measured values taken from patent US20230159655A1.
# How the values were obtained:
# [1] = biological target: human NT5E-Biotin (NT5E, GenbankID: NP_002517.1, position: 1-552) (human) (UniProt P21589); assay: ELISA on SA-captured NT5E-Biotin; antibody 0.333 ug/mL diluted 1:729; replicate 1
# [2] = biological target: CD73 endogenously expressed on the cell surface (MDA-MB-231 cells; U87-MG cells) (UniProt P21589); assay: flow cytometry on MDA-MB-231 cells; antibody 33.33 nM
# [3] = biological target: human NT5E-Biotin (NT5E, GenbankID: NP_002517.1, position: 1-552) (human) (UniProt P21589); assay: ELISA on SA-captured NT5E-Biotin; antibody 0.333 ug/mL diluted 1:27; replicate 1
# [4] = biological target: CD73 endogenously expressed on the cell surface (MDA-MB-231 cells; U87-MG cells) (UniProt P21589); assay: flow cytometry on MDA-MB-231 cells; antibody 0.41 nM
# [5] = biological target: human NT5E-Biotin (NT5E, GenbankID: NP_002517.1, position: 1-552) (human) (UniProt P21589); assay: ELISA on SA-captured NT5E-Biotin; antibody 0.333 ug/mL diluted 1:9; replicate 1
# [6] = biological target: human NT5E-Biotin (NT5E, GenbankID: NP_002517.1, position: 1-552) (human) (UniProt P21589); assay: ELISA on SA-captured NT5E-Biotin; antibody 0 (blank); replicate 2
# [7] = biological target: CD73 endogenously expressed on the cell surface (MDA-MB-231 cells; U87-MG cells) (UniProt P21589); assay: flow cytometry on MDA-MB-231 cells; antibody 100.00 nM
# [8] = biological target: CD73 endogenously expressed on the cell surface (MDA-MB-231 cells; U87-MG cells) (UniProt P21589); assay: flow cytometry on MDA-MB-231 cells; antibody 11.11 nM
# [9] = biological target: human NT5E-Biotin (NT5E, GenbankID: NP_002517.1, position: 1-552) (human) (UniProt P21589); assay: ELISA on SA-captured NT5E-Biotin; antibody 0.333 ug/mL diluted 1:81; replicate 2
# [10] = biological target: human NT5E-Biotin (NT5E, GenbankID: NP_002517.1, position: 1-552) (human) (UniProt P21589); assay: ELISA on SA-captured NT5E-Biotin; antibody 0 (blank); replicate 1
# [11] = biological target: human NT5E-Biotin (NT5E, GenbankID: NP_002517.1, position: 1-552) (human) (UniProt P21589); assay: ELISA on SA-captured NT5E-Biotin; antibody 0.333 ug/mL diluted 1:9; replicate 2
# [12] = biological target: human NT5E-Biotin (NT5E, GenbankID: NP_002517.1, position: 1-552) (human) (UniProt P21589); assay: ELISA on SA-captured NT5E-Biotin; antibody 0.333 ug/mL diluted 1:81; replicate 1
# [13] = biological target: CD73 endogenously expressed on the cell surface (MDA-MB-231 cells; U87-MG cells) (UniProt P21589); assay: flow cytometry on MDA-MB-231 cells; antibody […]
# [14] = biological target: human NT5E-Biotin (NT5E, GenbankID: NP_002517.1, position: 1-552) (human) (UniProt P21589); assay: ELISA on SA-captured NT5E-Biotin; antibody 0.333 ug/mL diluted 1:729; replicate 2
# [15] = biological target: human NT5E-Biotin (NT5E, GenbankID: NP_002517.1, position: 1-552) (human) (UniProt P21589); assay: ELISA on SA-captured NT5E-Biotin; antibody 0.333 ug/mL diluted 1:243; replicate 2
# [16] = biological target: human NT5E-Biotin (NT5E, GenbankID: NP_002517.1, position: 1-552) (human) (UniProt P21589); assay: ELISA on SA-captured NT5E-Biotin; antibody 0.333 ug/mL; replicate 2
# [17] = biological target: CD73 endogenously expressed on the cell surface (MDA-MB-231 cells; U87-MG cells) (UniProt P21589); assay: flow cytometry on MDA-MB-231 cells; antibody 3.70 nM
# [18] = biological target: human NT5E-Biotin (NT5E, GenbankID: NP_002517.1, position: 1-552) (human) (UniProt P21589); assay: ELISA on SA-captured NT5E-Biotin; antibody 0.333 ug/mL diluted 1:243; replicate 1
# [19] = biological target: human NT5E(1-552)-his (human) (UniProt P21589); assay: Fortebio BLI, antibody on Protein A sensor, antigen 3.125-200 nM, 37 C, 1:1 fit
# [20] = biological target: human NT5E-Biotin (NT5E, GenbankID: NP_002517.1, position: 1-552) (human) (UniProt P21589); assay: ELISA on SA-captured NT5E-Biotin; antibody 0.333 ug/mL diluted 1:3; replicate 1
# [21] = biological target: CD73 endogenously expressed on the cell surface (MDA-MB-231 cells; U87-MG cells) (UniProt P21589); assay: flow cytometry on MDA-MB-231 cells; antibody 0.14 nM
# [22] = biological target: human NT5E-Biotin (NT5E, GenbankID: NP_002517.1, position: 1-552) (human) (UniProt P21589); assay: ELISA on SA-captured NT5E-Biotin; antibody 0.333 ug/mL diluted 1:27; replicate 2
# [23] = biological target: human NT5E-Biotin (NT5E, GenbankID: NP_002517.1, position: 1-552) (human) (UniProt P21589); assay: ELISA on SA-captured NT5E-Biotin; antibody 0.333 ug/mL diluted 1:3; replicate 2
# [24] = biological target: CD73 endogenously expressed on the cell surface (MDA-MB-231 cells; U87-MG cells) (UniProt P21589); assay: flow cytometry on MDA-MB-231 cells; antibody 0.05 nM
# [25] = biological target: human NT5E-Biotin (NT5E, GenbankID: NP_002517.1, position: 1-552) (human) (UniProt P21589); assay: ELISA on SA-captured NT5E-Biotin; antibody 0.333 ug/mL; replicate 1
# CD73 endogenously expressed on the cell surface (MDA-MB-231 cells; U87-MG cells), sequence (P21589 27-549 limits assumed): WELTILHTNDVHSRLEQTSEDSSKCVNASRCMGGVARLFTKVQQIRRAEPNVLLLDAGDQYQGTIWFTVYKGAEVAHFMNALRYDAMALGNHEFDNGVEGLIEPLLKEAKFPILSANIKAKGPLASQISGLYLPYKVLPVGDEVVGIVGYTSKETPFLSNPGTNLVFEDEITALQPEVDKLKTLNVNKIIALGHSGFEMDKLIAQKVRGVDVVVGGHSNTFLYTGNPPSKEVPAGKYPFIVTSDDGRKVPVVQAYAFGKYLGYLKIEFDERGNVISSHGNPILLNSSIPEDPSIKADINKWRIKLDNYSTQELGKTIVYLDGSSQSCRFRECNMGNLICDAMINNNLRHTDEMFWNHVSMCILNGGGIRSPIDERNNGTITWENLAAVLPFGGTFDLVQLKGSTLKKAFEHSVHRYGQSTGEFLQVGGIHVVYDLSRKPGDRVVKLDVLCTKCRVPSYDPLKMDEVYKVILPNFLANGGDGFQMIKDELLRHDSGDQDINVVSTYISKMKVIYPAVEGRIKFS
# human NT5E-Biotin (NT5E, GenbankID: NP_002517.1, position: 1-552) (human), sequence (P21589 27-552 limits assumed, form in doubt): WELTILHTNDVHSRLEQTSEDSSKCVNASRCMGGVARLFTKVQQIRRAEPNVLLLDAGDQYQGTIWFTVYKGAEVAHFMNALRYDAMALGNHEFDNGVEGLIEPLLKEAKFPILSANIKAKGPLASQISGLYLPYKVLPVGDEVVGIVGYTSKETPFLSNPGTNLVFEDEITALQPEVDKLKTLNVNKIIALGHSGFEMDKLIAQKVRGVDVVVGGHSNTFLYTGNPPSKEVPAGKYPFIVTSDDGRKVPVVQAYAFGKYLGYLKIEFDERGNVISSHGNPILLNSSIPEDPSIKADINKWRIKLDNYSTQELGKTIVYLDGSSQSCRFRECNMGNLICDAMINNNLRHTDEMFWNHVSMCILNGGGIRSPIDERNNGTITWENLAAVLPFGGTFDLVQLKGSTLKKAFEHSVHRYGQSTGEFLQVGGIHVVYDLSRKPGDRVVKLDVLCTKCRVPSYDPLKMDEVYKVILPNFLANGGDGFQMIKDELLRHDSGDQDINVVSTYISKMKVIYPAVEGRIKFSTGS
# human NT5E(1-552)-his (human), sequence (P21589 27-552 limits assumed, form in doubt): as above
substance,measurement,setting,value
positive control antibody MEDI9447 (oleclumab),OD 450 nm,[1],0.272 OD450
same,fluorescence intensity (FACS),[2],546
same,OD 450 nm,[3],1.77 OD450
same,fluorescence intensity (FACS),[4],91
same,OD 450 nm,[5],2.27 OD450
same,OD 450 nm,[6],0.116 OD450
same,fluorescence intensity (FACS),[7],581
same,fluorescence intensity (FACS),[8],519
same,OD 450 nm,[9],1.03 OD450
same,OD 450 nm,[10],0.121 OD450
same,OD 450 nm,[11],2.28 OD450
same,OD 450 nm,[12],1.06 OD450
same,fluorescence intensity (FACS),[13],267
same,OD 450 nm,[14],0.275 OD450
same,OD 450 nm,[15],0.528 OD450
same,OD 450 nm,[16],2.53 OD450
same,fluorescence intensity (FACS),[17],454
same,OD 450 nm,[18],0.536 OD450
same,S E (kdis),[19],5.02e-06 s⁻¹
same,OD 450 nm,[20],2.57 OD450
same,fluorescence intensity (FACS),[21],43.2
same,OD 450 nm,[22],1.74 OD450
same,OD 450 nm,[23],2.6 OD450
same,fluorescence intensity (FACS),[24],28.4
same,OD 450 nm,[25],2.55 OD450
